In PMC11554683, “GNG5 is a novel regulator of Aβ42 production in Alzheimer’s disease” (Cell Death & Disease, 2024):

Target: the molecule itself
Assay: western blot (band sizes); recombinant GNG5 (purity >95%) used to assess anti-GNG5 antibodies (Fig. S3B)

B1: recombinant GNG5 (G protein subunit gamma 5) (natural protein, UniProt P63218 1-68, looked up)
chain: MSGSSSVAAMKKVVQQLRLEAGLNRVKVSQAAADLKQFCLQNAQHDPLLTGVSSSTNPFRPQKVCSFL
notes: G protein subunit gamma 5 (GNG5); Purity >95% is stated; also called purified GNG5; homotrimer-GNG5; source: E. coli BL21 (DE3), purified (HisTrap HP, PD-10)
- stoichiometry N: 3
